From patent US20230235013A1 (MABSOLVE, published 2023)

Biological target: T1, Histidine-tagged recombinant human FcγRI (CD64) (human, UniProt P12314 16-288)
T1 construct: bought; also called Sino Biological Cat. No. 12056-H08H
Assay: SPR, culture supernatant, captured His-FcγRI;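 further: biacore T200 SPR at 25 °C, anti-His capture, supernatants of HEK293 cells expressing IgG1 Fc variants injected 1 min, reference-subtracted response read 55 s after injection start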

Mean binding response	Binder
25.4 RU	anti-CD20 human IgG1 L234T/L235S/G236R (antibody, also called 2-62; copies: 2 + 2) heavy: QVQLQQPGAELVKPGASVKMSCKASGYTFTSYNMHWVKQTPGRGLEWIGAIYPGNGDTSYNQKFKGKATLTADKSSSTAYMQLSSLTSEDSAVYYCARSTYYGGDWYFNVWGAGTTVTVSSASTKGPSVFPLAPSSKSTSGGTAALGCLVKDYFPEPVTVSWNSGALTSGVHTFPAVLQSSGLYSLSSVVTVPSSSLGTQTYICNVNHKPSNTKVDKKVEPKSCDKTHTCPPCPAPETSRGPSVFLFPPKPKDTLMISRTPEVTCVVVDVSHEDPEVKFNWYVDGVEVHNAKTKPREEQYNSTYRVVSVLTVLHQDWLNGKEYKCKVSNKALPAPIEKTISKAKGQPREPQVYTLPPSRDELTKNQVSLTCLVKGFYPSDIAVEWESNGQPENNYKTTPPVLDSDGSFFLYSKLTVDKSRWQQGNVFSCSVMHEALHNHYTQKSLSLSPGK light: QIVLSQSPAILSASPGEKVTMTCRASSSVSYIHWFQQKPGSSPKPWIYATSNLASGVPVRFSGSGSGTSYSLTISRVEAEDAATYYCQQWTSNPPTFGGGTKLEIKRTVAAPSVFIFPPSDEQLKSGTASVVCLLNNFYPREAKVQWKVDNALQSGNSQESVTEQDSKDSTYSLSSTLTLSKADYEKHKVYACEVTHQGLSSPVTKSFNRGEC
6.7 RU	anti-CD20 human IgG1 L234T/L235K/G236R (antibody, also called 2-58; copies: 2 + 2) heavy: QVQLQQPGAELVKPGASVKMSCKASGYTFTSYNMHWVKQTPGRGLEWIGAIYPGNGDTSYNQKFKGKATLTADKSSSTAYMQLSSLTSEDSAVYYCARSTYYGGDWYFNVWGAGTTVTVSSASTKGPSVFPLAPSSKSTSGGTAALGCLVKDYFPEPVTVSWNSGALTSGVHTFPAVLQSSGLYSLSSVVTVPSSSLGTQTYICNVNHKPSNTKVDKKVEPKSCDKTHTCPPCPAPETKRGPSVFLFPPKPKDTLMISRTPEVTCVVVDVSHEDPEVKFNWYVDGVEVHNAKTKPREEQYNSTYRVVSVLTVLHQDWLNGKEYKCKVSNKALPAPIEKTISKAKGQPREPQVYTLPPSRDELTKNQVSLTCLVKGFYPSDIAVEWESNGQPENNYKTTPPVLDSDGSFFLYSKLTVDKSRWQQGNVFSCSVMHEALHNHYTQKSLSLSPGK light: QIVLSQSPAILSASPGEKVTMTCRASSSVSYIHWFQQKPGSSPKPWIYATSNLASGVPVRFSGSGSGTSYSLTISRVEAEDAATYYCQQWTSNPPTFGGGTKLEIKRTVAAPSVFIFPPSDEQLKSGTASVVCLLNNFYPREAKVQWKVDNALQSGNSQESVTEQDSKDSTYSLSSTLTLSKADYEKHKVYACEVTHQGLSSPVTKSFNRGEC

Continued, binder first:

Binder	Mean binding response
anti-CD20 human IgG1 L234R/L235K/G236R (antibody, also called 2-40; copies: 2 + 2) heavy: QVQLQQPGAELVKPGASVKMSCKASGYTFTSYNMHWVKQTPGRGLEWIGAIYPGNGDTSYNQKFKGKATLTADKSSSTAYMQLSSLTSEDSAVYYCARSTYYGGDWYFNVWGAGTTVTVSSASTKGPSVFPLAPSSKSTSGGTAALGCLVKDYFPEPVTVSWNSGALTSGVHTFPAVLQSSGLYSLSSVVTVPSSSLGTQTYICNVNHKPSNTKVDKKVEPKSCDKTHTCPPCPAPERKRGPSVFLFPPKPKDTLMISRTPEVTCVVVDVSHEDPEVKFNWYVDGVEVHNAKTKPREEQYNSTYRVVSVLTVLHQDWLNGKEYKCKVSNKALPAPIEKTISKAKGQPREPQVYTLPPSRDELTKNQVSLTCLVKGFYPSDIAVEWESNGQPENNYKTTPPVLDSDGSFFLYSKLTVDKSRWQQGNVFSCSVMHEALHNHYTQKSLSLSPGK light: QIVLSQSPAILSASPGEKVTMTCRASSSVSYIHWFQQKPGSSPKPWIYATSNLASGVPVRFSGSGSGTSYSLTISRVEAEDAATYYCQQWTSNPPTFGGGTKLEIKRTVAAPSVFIFPPSDEQLKSGTASVVCLLNNFYPREAKVQWKVDNALQSGNSQESVTEQDSKDSTYSLSSTLTLSKADYEKHKVYACEVTHQGLSSPVTKSFNRGEC	19.2 RU
anti-CD20 human IgG1 L234Q/L235A/G236R (antibody, also called 2-27; copies: 2 + 2) heavy: not shown light: QIVLSQSPAILSASPGEKVTMTCRASSSVSYIHWFQQKPGSSPKPWIYATSNLASGVPVRFSGSGSGTSYSLTISRVEAEDAATYYCQQWTSNPPTFGGGTKLEIKRTVAAPSVFIFPPSDEQLKSGTASVVCLLNNFYPREAKVQWKVDNALQSGNSQESVTEQDSKDSTYSLSSTLTLSKADYEKHKVYACEVTHQGLSSPVTKSFNRGEC	13.4 RU
anti-CD20 human IgG1 L234A/L235S/G236R (antibody, also called 1-14; 2-4; copies: 2 + 2) heavy: not shown light: QIVLSQSPAILSASPGEKVTMTCRASSSVSYIHWFQQKPGSSPKPWIYATSNLASGVPVRFSGSGSGTSYSLTISRVEAEDAATYYCQQWTSNPPTFGGGTKLEIKRTVAAPSVFIFPPSDEQLKSGTASVVCLLNNFYPREAKVQWKVDNALQSGNSQESVTEQDSKDSTYSLSSTLTLSKADYEKHKVYACEVTHQGLSSPVTKSFNRGEC	32.1 RU
anti-CD20 human IgG1 L234D/L235S/G236R (antibody, also called 1-29; 2-10; copies: 2 + 2) heavy: QVQLQQPGAELVKPGASVKMSCKASGYTFTSYNMHWVKQTPGRGLEWIGAIYPGNGDTSYNQKFKGKATLTADKSSSTAYMQLSSLTSEDSAVYYCARSTYYGGDWYFNVWGAGTTVTVSSASTKGPSVFPLAPSSKSTSGGTAALGCLVKDYFPEPVTVSWNSGALTSGVHTFPAVLQSSGLYSLSSVVTVPSSSLGTQTYICNVNHKPSNTKVDKKVEPKSCDKTHTCPPCPAPEDSRGPSVFLFPPKPKDTLMISRTPEVTCVVVDVSHEDPEVKFNWYVDGVEVHNAKTKPREEQYNSTYRVVSVLTVLHQDWLNGKEYKCKVSNKALPAPIEKTISKAKGQPREPQVYTLPPSRDELTKNQVSLTCLVKGFYPSDIAVEWESNGQPENNYKTTPPVLDSDGSFFLYSKLTVDKSRWQQGNVFSCSVMHEALHNHYTQKSLSLSPGK light: QIVLSQSPAILSASPGEKVTMTCRASSSVSYIHWFQQKPGSSPKPWIYATSNLASGVPVRFSGSGSGTSYSLTISRVEAEDAATYYCQQWTSNPPTFGGGTKLEIKRTVAAPSVFIFPPSDEQLKSGTASVVCLLNNFYPREAKVQWKVDNALQSGNSQESVTEQDSKDSTYSLSSTLTLSKADYEKHKVYACEVTHQGLSSPVTKSFNRGEC	26.3 RU
anti-CD20 human IgG1 L234S/L235G/G236R (antibody, also called 1-140; 2-47; copies: 2 + 2) heavy: QVQLQQPGAELVKPGASVKMSCKASGYTFTSYNMHWVKQTPGRGLEWIGAIYPGNGDTSYNQKFKGKATLTADKSSSTAYMQLSSLTSEDSAVYYCARSTYYGGDWYFNVWGAGTTVTVSSASTKGPSVFPLAPSSKSTSGGTAALGCLVKDYFPEPVTVSWNSGALTSGVHTFPAVLQSSGLYSLSSVVTVPSSSLGTQTYICNVNHKPSNTKVDKKVEPKSCDKTHTCPPCPAPESGRGPSVFLFPPKPKDTLMISRTPEVTCVVVDVSHEDPEVKFNWYVDGVEVHNAKTKPREEQYNSTYRVVSVLTVLHQDWLNGKEYKCKVSNKALPAPIEKTISKAKGQPREPQVYTLPPSRDELTKNQVSLTCLVKGFYPSDIAVEWESNGQPENNYKTTPPVLDSDGSFFLYSKLTVDKSRWQQGNVFSCSVMHEALHNHYTQKSLSLSPGK light: QIVLSQSPAILSASPGEKVTMTCRASSSVSYIHWFQQKPGSSPKPWIYATSNLASGVPVRFSGSGSGTSYSLTISRVEAEDAATYYCQQWTSNPPTFGGGTKLEIKRTVAAPSVFIFPPSDEQLKSGTASVVCLLNNFYPREAKVQWKVDNALQSGNSQESVTEQDSKDSTYSLSSTLTLSKADYEKHKVYACEVTHQGLSSPVTKSFNRGEC	11.2 RU
